Data from patent US12072338B2, “Pharmaceutical peptides for the treatment of inflammatory diseases” (PROTAGONISTS LTD., priority 2007, dated 2024).
Like-named read-outs stand apart in the source and are kept apart here.

Legend:
C-TAC = target: T1, C-TAC (Homo sapiens, UniProt Q9Y4X3); assay: Micro-array analysis of chemokine binding peptides: C-TAC
T1 construct: purchased 300-54
T1 sequence (Q9Y4X3 25-112): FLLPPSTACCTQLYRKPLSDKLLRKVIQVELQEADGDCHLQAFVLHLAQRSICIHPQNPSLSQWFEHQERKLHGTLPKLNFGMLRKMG
Description: (§1) (1) Printing: Chemokine (CK) solution (in water) was serially diluted with Print Reagent (GenTel BioSurfaces USA) to final concentrations of 50 μg and 25 μg/ml. BSA/BSA-Biotin control solutions (in water) were diluted with Print Reagent to 100 μg/ml. Amplified stock of M13 phage control (M13KEgIII Cloning Vector, New England Biolabs, Cat.No.E8101S) was stored in Tris Buffered Saline (TBS; pH7.5, 4° C.) and diluted with Print Reagent to the working titre (10^8 pfu/μl). An automated spotting robot (16 pin print tool, 0.4 mm head; BioRobotics, UK) was used to print the CK/BSA control/M13 control, 5 repeats per sample (CK 25 μg/ml and 50 μg/ml; BSA 100 μg/ml; M13 20 μl), on PATH Protein Microarray Slides (GenTel, Prod.No. 2-1005/-1025) at […], and 50-70% relative humidity. Printed micro-array slides were stored at Room Temperature (RT) or 4° C. for at least 24 h before use.
(§2) (2) Blocking: Block Buffer (500 μl/partition; PATHblock, GenTel, Prod.No. 2-1014) was applied to the slide for 1 hour at room temp (RT). After removal of Block Buffer, the slide was air dried for 25 minutes;
(§3) (3) Phage Presented Peptide Binding: Amplified recombinant phage stock was stored in TBS and diluted with Wash Buffer to working titer (10^7 pfu/μl). Recombinant phage suspension (300 μl) was applied per partition and incubated at RT for 1 hour with gentle agitation.
(§4) (4) First Washing: The slides were washed twice with Wash Buffer 300 μl/partition).
(5) Primary Antibody (Ab) Labeling: The slides were incubated with the Primary Ab (1 mg/ml diluted ×2500 (Wash Reagent), 300 μl; Mouse Anti-M13 monoclonal Ab; Amersham Biosciences, UK; Product Code 27-9420-01) for 45 minutes at RT. […]
(§5) (11) Analysis: Quantitative analysis of micro-array was performed by the SpotReader program of Niles Scientific (USA) and presented as Relative Fluorescence (RF) as a function of CK concentration. Micro-array readout (Cy3 fluorescence) was quantified to determine the relative binding affinities of a CBP for the CKs and by inference, the specificity of the CBP for binding to a CK.

BCA-1 = target: T2, BCA-1 (Homo sapiens, UniProt O43927); assay: Micro-array analysis of chemokine binding peptides: BCA-1
T2 construct: purchased 300-47
T2 sequence (O43927 23-109): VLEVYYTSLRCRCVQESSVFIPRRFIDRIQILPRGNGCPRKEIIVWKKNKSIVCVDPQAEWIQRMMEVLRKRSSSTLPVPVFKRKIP
Outline: (§6)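 Phage-presented peptides (10^7 pfu/μl in wash buffer) were incubated 1 h at room temperature on blocked slides carrying chemokine spots at 25 or 50 μg/ml. After anti-M13 and Cy3-labelled secondary antibody staining, slides were laser-scanned and spot fluorescence quantified as relative binding.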

TECK = target: T3, TECK (Homo sapiens, UniProt O15444); assay: Micro-array analysis of chemokine binding peptides: TECK
T3 construct: purchased 300-45
T3 sequence (O15444 24-150): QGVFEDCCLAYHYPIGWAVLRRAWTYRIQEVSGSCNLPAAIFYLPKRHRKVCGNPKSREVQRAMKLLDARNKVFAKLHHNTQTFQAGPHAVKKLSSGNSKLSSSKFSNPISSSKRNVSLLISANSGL
Outline: as §6

I-TAC = target: T4, I-TAC (Homo sapiens, UniProt O14625); assay: Micro-array analysis of chemokine binding peptides: I-TAC; settings: for binding to I-TAC with relatively high affinity (Relative Fluorescence Units): limit = start of the upper 75% of that peptide's response range
T4 construct: purchased 300-46
T4 sequence (O14625 22-94): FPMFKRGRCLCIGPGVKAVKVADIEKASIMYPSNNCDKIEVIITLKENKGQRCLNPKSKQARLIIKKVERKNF
Outline: as §6

I-309 = target: T5, I-309 (Homo sapiens, UniProt P22362); assay: Micro-array analysis of chemokine binding peptides: I-309; settings: for binding to I-309 with relatively high affinity (Relative Fluorescence Units): limit = start of the upper 75% of that peptide's response range
T5 construct: purchased 300-37
T5 sequence (P22362 24-96): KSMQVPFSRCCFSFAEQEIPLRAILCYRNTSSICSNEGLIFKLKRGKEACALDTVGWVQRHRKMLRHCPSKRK
Outline: as §6

MCP-1 = target: T6, MCP-1 (Homo sapiens, UniProt P13500); assay: Micro-array analysis of chemokine binding peptides: MCP-1; settings: for binding to MCP-1 with relatively high affinity (Relative Fluorescence Units): limit = start of the upper 75% of that peptide's response range
T6 construct: purchased 300-04
Outline: as §6

Fractalkine = target: T7, Fractalkine (Homo sapiens, UniProt P78423); assay: Micro-array analysis of chemokine binding peptides: Fractalkine
T7 construct: purchased 300-31
T7 sequence (P78423 25-100 limits assumed): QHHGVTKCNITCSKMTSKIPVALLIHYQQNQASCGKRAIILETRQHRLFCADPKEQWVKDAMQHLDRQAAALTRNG
Outline: as §6

MCP-2 = target: T8, MCP-2 (Homo sapiens, UniProt P80075); assay: Micro-array analysis of chemokine binding peptides: MCP-2; settings: limit = start of the upper 75% of that peptide's response range
T8 construct: purchased 300-15
T8 sequence (P80075 24-99): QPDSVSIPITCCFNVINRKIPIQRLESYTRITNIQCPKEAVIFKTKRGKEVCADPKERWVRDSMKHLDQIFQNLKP
Outline: as §6

Eotaxin 3 = target: T9, Eotaxin 3 (Homo sapiens, UniProt Q9Y258); assay: Micro-array analysis of chemokine binding peptides: Eotaxin 3; settings: for binding to Eotaxin 3 with relatively high affinity (Relative Fluorescence Units): limit = start of the upper 75% of that peptide's response range
T9 construct: purchased 300-48
T9 sequence (Q9Y258 24-94): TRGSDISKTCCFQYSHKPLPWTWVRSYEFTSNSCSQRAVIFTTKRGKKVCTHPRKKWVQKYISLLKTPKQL
Outline: as §6

SDF1-β = target: T10, SDF1-β (Homo sapiens, UniProt P48061); assay: Micro-array analysis of chemokine binding peptides: SDF1-β
T10 construct: purchased 300-28b
Outline: as §6

Exodus-2 = target: T11, Exodus-2 (Homo sapiens, UniProt O00585); assay: Micro-array analysis of chemokine binding peptides: Exodus-2
T11 construct: purchased 300-35
T11 sequence (O00585 24-134): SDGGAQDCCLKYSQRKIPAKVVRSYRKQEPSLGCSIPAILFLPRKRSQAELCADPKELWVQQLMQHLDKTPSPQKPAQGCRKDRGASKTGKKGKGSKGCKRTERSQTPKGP
Outline: as §6

IL-8 = assay: Micro-array analysis of chemokine binding peptides: IL-8; settings: for binding to IL-8 with relatively high affinity (Relative Fluorescence Units): limit = start of the upper 75% of that peptide's response range
Outline: as §6

MCP-4 = target: T12, MCP-4 (Homo sapiens, UniProt Q99616); assay: Micro-array analysis of chemokine binding peptides: MCP-4; settings: limit = start of the upper 75% of that peptide's response range
T12 construct: purchased 300-24
Outline: as §6

SDF1 = assay: Micro-array analysis of chemokine binding peptides: SDF1 (isoform not given)
Description: as §1, §2, §3, §4
(5) Primary Antibody (Ab) Labeling: The slides were incubated with the Primary Ab (1 mg/ml diluted ×2500 (Wash Reagent), 300 μl; Mouse Anti-M13 monoclonal Ab; Amersham Biosciences, UK; Product Code 27-9420-01) for 45 minutes at RT.
(6) Second Washing: The slides were washed twice with Wash Buffer (300 μl/partition).
(7) Secondary Ab Labeling: The slides were incubated with Secondary Ab (1.5 mg/ml diluted ×5000 (Wash Reagent), 300 μl; Cy3-conjugated AffiniPure Goat Anti-Mouse IgG; Jackson ImmunoReserch Labs, USA; Product Code 115-165-062).
(8) Third Washing: The slides were washed twice with Wash Buffer (300 μl/partition).
(9) Rinse: the slides were rinsed twice with Rinse Buffer (PATHrinse, GenTel, Prod.No. 2-1018) then dried well.
(10) Scanning: The peptide-bound, labeled slide was scanned (Laser Intensity 80%, Gain 80%, Resolution 10 μm) with a ScanArray Life Scanner (Packard BioChip Technologies, USA).
as §5

[1] = limit = start of the upper 75% of that peptide's response range

T12 sequence (Q99616 17-98): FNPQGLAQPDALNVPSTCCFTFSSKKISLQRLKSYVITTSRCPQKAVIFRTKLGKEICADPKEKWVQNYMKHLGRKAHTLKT
T6 sequence (P13500 24-99): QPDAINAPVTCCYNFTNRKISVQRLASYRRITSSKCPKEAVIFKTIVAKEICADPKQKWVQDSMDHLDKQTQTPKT
Sequence of IL-8 (P10145 28-99 limits assumed): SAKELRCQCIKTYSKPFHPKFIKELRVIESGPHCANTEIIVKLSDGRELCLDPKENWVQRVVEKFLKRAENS
T10 sequence (P48061 22-93): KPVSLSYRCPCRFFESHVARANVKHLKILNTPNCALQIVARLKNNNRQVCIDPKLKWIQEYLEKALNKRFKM
Sequence of SDF1 (P48061 22-89 limits assumed): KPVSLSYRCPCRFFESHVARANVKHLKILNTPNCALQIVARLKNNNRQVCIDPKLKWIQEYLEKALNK

| binding to C-TAC, stated in words (C-TAC) | binding to BCA-1, stated in words (BCA-1) | binding to TECK, stated in words (TECK) | binding to I-TAC with relatively high affinity (Relative Fluorescence Units) (I-TAC) | binding to I-309 with relatively high affinity (Relative Fluorescence Units) (I-309) | binding to MCP-1 with relatively high affinity (Relative Fluorescence Units) (MCP-1) | binding to Fractalkine, stated in words (Fractalkine) | binding to MCP-2 with relatively high affinity (Relative Fluorescence Units) (MCP-2) | binding to Eotaxin 3 with relatively high affinity (Relative Fluorescence Units) (Eotaxin 3) | binding to SDF1-β, stated in words (SDF1-β) | binding to Exodus-2, stated in words (Exodus-2) | binding to IL-8 with relatively high affinity (Relative Fluorescence Units) (IL-8) | binding to MCP-4 with relatively high affinity (Relative Fluorescence Units) (MCP-4) | binding to SDF1 (isoform not given), stated in words (SDF1) | binding to IL-8, stated in words (IL-8) | Sequence | other results |
| --- | --- | --- | --- | --- | --- | --- | --- | --- | --- | --- | --- | --- | --- | --- | --- | --- |
| bound | bound | bound | > 15,000 RFU | > 15,000 RFU | > 15,000 RFU | bound | > 15,000 RFU | > 15,000 RFU | bound | bound | > 15,000 RFU | > 15,000 RFU | – | – | DYDYGAPC [Ph-p30] | – |
| – | – | – | > 25,000 RFU | > 25,000 RFU | – | bound specifically and differentially | > 25,000 RFU | > 25,000 RFU | – | – | > 25,000 RFU | > 25,000 RFU | bound specifically and differentially | bound specifically and differentially | WVFGNAMCK [P8] | binding to BCA-1 with relatively high affinity (Relative Fluorescence Units) (BCA-1; [1]): > 25,000 RFU; binding to TECK with relatively high affinity (Relative Fluorescence Units) (TECK; [1]): > 25,000 RFU; binding to Fractalkine with relatively high affinity (Relative Fluorescence Units) (Fractalkine; [1]): > 25,000 RFU; binding to SDF1-β with relatively high affinity (Relative Fluorescence Units) (SDF1-β; [1]): > 25,000 RFU |
| bound | bound | bound | – | – | > 15,000 RFU | bound | > 15,000 RFU | – | bound | bound | – | > 15,000 RFU | bound specifically and differentially | bound | WVFGAAMCK [Ph-p8.8] | binding to I-TAC, stated in words (I-TAC): bound; binding to I-309, stated in words (I-309): bound; binding to MCP-1, stated in words (MCP-1): bound specifically and differentially; binding to Fractalkine, stated in words (Fractalkine; listed as P8.8): bound specifically and differentially; binding to Eotaxin 3, stated in words (Eotaxin 3): bound; binding to IL-8, stated in words (IL-8; listed as P8.8): bound specifically and differentially |
